The target in experiment [1] is human CCR5 receptor (hCCR5) (human), P51681. Put plainly: inhibition of gp120/sCD4 complex binding to CCR5-expressing Cf2Th cells by competing peptide.
For experiment [2] the target is unchanged. The experiment in a line: inhibition of gp120BaL/sCD4 binding to Cf2Th/synR5 cells (FIG. 4A).
For experiment [3] the target is unchanged. The experiment in a line: inhibition of gp120CM235/sCD4 binding to Cf2Th/synR5 cells (FIG. 4B).
Experiment [4] has the same target. Put plainly: inhibition of gp120CM235/sCD4 binding to GHOST CD4.CCR5 cells (FIG. 4C).

Chain of human CCR5 receptor (hCCR5) (human), P51681 (P51681 whole entry): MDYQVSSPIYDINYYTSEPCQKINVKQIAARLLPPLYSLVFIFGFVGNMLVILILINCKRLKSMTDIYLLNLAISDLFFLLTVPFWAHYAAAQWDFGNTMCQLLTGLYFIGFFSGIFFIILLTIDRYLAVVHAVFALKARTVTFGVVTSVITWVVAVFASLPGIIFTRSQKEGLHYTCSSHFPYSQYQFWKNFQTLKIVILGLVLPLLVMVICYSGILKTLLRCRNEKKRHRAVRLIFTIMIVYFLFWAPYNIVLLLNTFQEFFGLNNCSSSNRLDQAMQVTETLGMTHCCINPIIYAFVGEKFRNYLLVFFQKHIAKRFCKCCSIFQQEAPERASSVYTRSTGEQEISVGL

For orientation: EC50 means the concentration at which the effect is half-maximal. Molecule TTSYT (modifications not checked) had an EC50 in experiment [1] of 0.05 nM.

In experiment [1], NSSYR (modifications not checked) gave an EC50 of 0.04 nM.

For TTSYR (modifications not checked), the EC50 in experiment [1] turned out to be 0.1 nM.

The IC50 is the midpoint of a concentration-inhibition curve. A higher IC50 goes with a need for much substance. ASTTTNYT (modifications not checked) [DAPTA (Dala1-peptide T-amide)]: the IC50 was found to be 0.055 nM in experiment [2], 0.32 nM in experiment [3] and 0.051 nM in experiment [4]. The same molecule showed a percent inhibition of specific binding in experiment [3] of more than 80%.

Regarding NSEYR (modifications not checked), in experiment [1], the EC50 amounted to 0.08 nM.

SSEYR (modifications not checked) yielded an EC50 in experiment [1] of 0.3 nM.

YSSYR (modifications not checked) gave an EC50 in experiment [1] of 0.6 nM.

In turn, TISYR (modifications not checked) yielded a concentration giving a half-maximal response (EC50) in experiment [1] of 0.4 nM.

In experiment [1], NNRYR (modifications not checked) returned an EC50 of 0.2 nM.

NSSYT (modifications not checked) gave a half-maximal effective concentration (EC50) in experiment [1] of 0.2 nM.

In experiment [1], NTSYR (modifications not checked) came in with an EC50 of 0.1 nM.

In experiment [1], SSTYR (modifications not checked) yielded a 50% effective concentration (EC50) of 0.1 nM.

As to TSNYS (modifications not checked), in experiment [1], the EC50 came to 0.2 nM.

In experiment [1], NSNYS (modifications not checked) displayed a concentration for a half-maximal effect (EC50) of 0.5 nM.

The values above are taken from patent US20190000964A1.
